The source of these data is the supplement of paper PMC10126150.

± gives the standard deviation of the averaged measurements.
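Further: ATP exposure 15 min at 22 °C before imaging.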

The subject of the data set is ATP. Nature of the data set: switch fluorescence ratio, 500 uM ATP over buffer (Cy3 cluster intensity, sum of 5 cycles each) (fold (ratio)); higher = stronger signal-on switching upon ATP binding; sequences stand for … in TCGTCGGCAGCGTCAGATGTGTATAAGAGACAGTTTTTTTTTTTTTTTTTTTTTTTTT…TC. The settings on record: aptamer strand: ATP DNA aptamer (quencher-CACCTGGGGGAGTATTGCGGAGGAAGG + anchor), 100 nM annealed; ATP concentration: 500 uM. In a few lines: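 Between each of five buffer/ATP cycles, the flow-cell was stripped with NaOH and re-annealed. Each cycle imaged Cy3-labelled switching-strand clusters, annealed to 100 nM quencher-labelled ATP aptamer on a modified Illumina MiSeq flow-cell, first in selection buffer and then after 15 min with 500 uM ATP at 22 °C. The fluorescence ratio is summed target-cycle over summed buffer-cycle Cy3 intensity per cluster, averaged per switch-domain sequence, with clusters outside 100-1000 RFU excluded.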
Consider AAGGGGCTTA, for which the switch fluorescence ratio was 0.961 ± 0.013.

AGTTTTGCGC: the switch fluorescence ratio is 0.972 ± 0.034.

Regarding CAAATACGGT, the switch fluorescence ratio is 1.25 ± 0.25.

On to GGCAGTAAGA, for which the switch fluorescence ratio came out at 1.03 ± 0.024.

Regarding TAGGAGGTTC, the switch fluorescence ratio was 0.988 ± 0.021.

Turning to TTTGCGTTTT, the switch fluorescence ratio was 1.01 ± 0.025.

As for AAAGGTAGGG, the switch fluorescence ratio came to 0.993 ± 0.032.

Regarding AGTTGGGGGT, the switch fluorescence ratio was determined as 0.998 ± 0.025.

Consider GATTGGGTAC, for which the switch fluorescence ratio came out at 1.03 ± 0.025.

For the sequence AATGTCGGGC, the switch fluorescence ratio was 1.02 ± 0.022.

Take GTATCAGGGC: the switch fluorescence ratio was 1.04 ± 0.033.

Take TTCAAGTTAG: the switch fluorescence ratio is 1 ± 0.035.

On to GGGGGTTAGA, for which the switch fluorescence ratio turned out to be 1 ± 0.035.

In the case of GCATCACGAG, the switch fluorescence ratio is 1.08 ± 0.03.

Turning to TACACAGCGG, the switch fluorescence ratio amounted to 1.05 ± 0.045.

As to AGGGGTAGGA, the switch fluorescence ratio was determined as 0.99 ± 0.034.

Take TCCTTCCGGG: the switch fluorescence ratio is 2.16 ± 0.19.

Turning to TGATTGCCCG, the switch fluorescence ratio stood at 0.9376 ± 0.0077.

As to TTTTTACCAT, the switch fluorescence ratio amounted to 1.04 ± 0.022.

Consider CGGTGGGAGT, for which the switch fluorescence ratio came to 0.973 ± 0.03.

As to AATATTGGAT, the switch fluorescence ratio was 1.01 ± 0.023.

Regarding CAACAAGGGA, the switch fluorescence ratio was found to be 1.04 ± 0.018.

Take AAACTAGAAG: the switch fluorescence ratio amounted to 1.01 ± 0.019.

Regarding CGGTCGCAGT, the switch fluorescence ratio is 1.02 ± 0.055.

For the sequence TGTTTTCTTT, the switch fluorescence ratio turned out to be 0.987 ± 0.019.

For ATACCGGATT, the switch fluorescence ratio came to 1.01 ± 0.046.

As to AAGAGGGCAG, the switch fluorescence ratio was determined as 0.992 ± 0.0081.

Turning to GATTAAAGGC, the switch fluorescence ratio was 1.01 ± 0.039.

On to GCGTAGGGCC, for which the switch fluorescence ratio was 1.03 ± 0.027.

As for GAGGGCGTTT, the switch fluorescence ratio is 0.98 ± 0.027.

On to TAGTGAACTT, for which the switch fluorescence ratio worked out at 1.01 ± 0.0054.

Consider TTTTTGAAAT, for which the switch fluorescence ratio turned out to be 1.35 ± 0.6.

With AGACGGTCGG, the switch fluorescence ratio came out at 0.975 ± 0.016.

GTTTTGGCTG: the switch fluorescence ratio was 1.02 ± 0.036.

As for ACTGTGTACA, the switch fluorescence ratio amounted to 0.9824 ± 0.0024.

With GAGTATGTGG, the switch fluorescence ratio came to 0.9516 ± 0.0029.

With GGGATCAGTA, the switch fluorescence ratio was determined as 0.9602 ± 0.0055.

For the sequence ACGGTAGGGT, the switch fluorescence ratio was determined as 1.12 ± 0.06.

With GGCATCGTAA, the switch fluorescence ratio is 1.01 ± 0.025.

Take TAGGGGCCTG: the switch fluorescence ratio stood at 0.9831 ± 0.0098.

In the case of GCCGGGAGTA, the switch fluorescence ratio stood at 1.004 ± 0.0031.

On to TAAAAGTGGG, for which the switch fluorescence ratio turned out to be 1.009 ± 0.003.

On to GCGTACTCAA, for which the switch fluorescence ratio turned out to be 1.11 ± 0.043.

Regarding CGTCCATTGA, the switch fluorescence ratio worked out at 1.03 ± 0.019.

As to TTAAGTCATT, the switch fluorescence ratio amounted to 0.986 ± 0.039.

As to TATGTTATTC, the switch fluorescence ratio was 1.01 ± 0.045.

With TTATAAGTAG, the switch fluorescence ratio was found to be 1.01 ± 0.02.

With CGTGTGAGGT, the switch fluorescence ratio stood at 0.9972 ± 0.008.

As for GCCGTAGTGC, the switch fluorescence ratio stood at 1.01 ± 0.03.

Regarding GAAAGGGGCT, the switch fluorescence ratio amounted to 0.993 ± 0.031.

As to ACGTTGACAG, the switch fluorescence ratio came to 1.05 ± 0.011.

Take CCCAGTCAGA: the switch fluorescence ratio was 1.033 ± 0.0078.

As for TCACATTTTC, the switch fluorescence ratio was found to be 1.09 ± 0.14.

On to AAGATCAATA, for which the switch fluorescence ratio turned out to be 0.9967 ± 0.0044.

For GTGTGCACTG, the switch fluorescence ratio came out at 0.996 ± 0.029.

As for AAACCCGATA, the switch fluorescence ratio was 1.05 ± 0.025.

Take AAAGCTGGGT: the switch fluorescence ratio is 1 ± 0.026.

On to AAGATGCTTG, for which the switch fluorescence ratio was 0.998 ± 0.038.

Consider GTGGTACATA, for which the switch fluorescence ratio was found to be 0.981 ± 0.022.

GGGGGGCCTA: the switch fluorescence ratio came out at 0.988 ± 0.046.

Regarding TTGTTAGTCT, the switch fluorescence ratio is 0.982 ± 0.024.

Turning to ACAGTGTGTT, the switch fluorescence ratio was determined as 0.979 ± 0.018.

Regarding TTTAAGGCGT, the switch fluorescence ratio was 1.03 ± 0.016.

Consider CCGGGAGGTA, for which the switch fluorescence ratio worked out at 0.991 ± 0.021.

Take AATGGCGGCA: the switch fluorescence ratio stood at 1.06 ± 0.078.

As to TATATGTCCA, the switch fluorescence ratio was determined as 1 ± 0.027.

With TTCGAAGGAA, the switch fluorescence ratio turned out to be 1.1 ± 0.028.

As to ATTTATAATT, the switch fluorescence ratio is 0.992 ± 0.028.

Take TTTAAACCGG: the switch fluorescence ratio came to 1.02 ± 0.016.

Regarding TACGTTGCAT, the switch fluorescence ratio stood at 1.05 ± 0.055.

GGGCGAGCCT: the switch fluorescence ratio is 1.028 ± 0.008.

AGCGGTGGGA: the switch fluorescence ratio turned out to be 1.02 ± 0.032.

In the case of TCGTTTGTGG, the switch fluorescence ratio stood at 1.04 ± 0.013.

In the case of AGTAAAATGT, the switch fluorescence ratio was determined as 1 ± 0.021.

On to AGGCCGTATT, for which the switch fluorescence ratio was 1 ± 0.029.

Regarding ATAGTAAAAC, the switch fluorescence ratio turned out to be 1.05 ± 0.02.

As for AGATGGGTAT, the switch fluorescence ratio stood at 0.986 ± 0.011.

In the case of TCTCGAGGGG, the switch fluorescence ratio was found to be 1 ± 0.019.

Take GTGGAAAGCG: the switch fluorescence ratio came to 0.981 ± 0.059.

In the case of CAAACAGTCG, the switch fluorescence ratio stood at 1.01 ± 0.042.

Turning to AGTCATTGTT, the switch fluorescence ratio came out at 0.989 ± 0.012.

AAGTGTGGGT: the switch fluorescence ratio came out at 1 ± 0.075.

Turning to ATGTTGCCGT, the switch fluorescence ratio came to 1.01 ± 0.13.

Consider TACAGTAGCT, for which the switch fluorescence ratio amounted to 1.09 ± 0.011.

For the sequence TCGGCCCAGG, the switch fluorescence ratio came to 3.6 ± 1.4.

For ATTGGGAATC, the switch fluorescence ratio was found to be 0.9923 ± 0.0027.

As to GTATATCCGG, the switch fluorescence ratio was 0.975 ± 0.013.

Consider TTATTTTGAC, for which the switch fluorescence ratio turned out to be 1 ± 0.023.

Turning to ACGCTAATGT, the switch fluorescence ratio turned out to be 1.35 ± 0.23.

In the case of AGCGGAAGGC, the switch fluorescence ratio came out at 1.04 ± 0.024.

With TTTTTGAAGT, the switch fluorescence ratio turned out to be 1.01 ± 0.027.

For CGATTTGCTT, the switch fluorescence ratio turned out to be 0.969 ± 0.058.

Turning to GGTTGAAATG, the switch fluorescence ratio turned out to be 0.939 ± 0.072.

TTTAATTTGG: the switch fluorescence ratio was found to be 0.9816 ± 0.0073.

For the sequence GCTGGGATAG, the switch fluorescence ratio came out at 1.01 ± 0.019.

Take TAAAAGGAAT: the switch fluorescence ratio is 0.993 ± 0.018.

Turning to GGTGGAGGGA, the switch fluorescence ratio turned out to be 0.987 ± 0.031.

On to TAACAGGGAG, for which the switch fluorescence ratio was 1.012 ± 0.01.

For TATAAAACAC, the switch fluorescence ratio was found to be 1.02 ± 0.013.

With ATCGGTACGT, the switch fluorescence ratio was determined as 1.03 ± 0.021.

On to CAGAGTCTGG, for which the switch fluorescence ratio was 1.04 ± 0.024.

Take GGGGGTATGG: the switch fluorescence ratio stood at 0.983 ± 0.032.

Turning to TTTGGGTGGC, the switch fluorescence ratio was 1.03 ± 0.036.

As to ATGGGACTTT, the switch fluorescence ratio was found to be 1.02 ± 0.037.

Consider CAATGGGGGA, for which the switch fluorescence ratio worked out at 1.007 ± 0.0018.

On to TTATGATTTA, for which the switch fluorescence ratio was determined as 0.9434 ± 0.0029.

Regarding TAGTGCGGTA, the switch fluorescence ratio amounted to 1.036 ± 0.0022.

Consider ATTTGCAGGA, for which the switch fluorescence ratio amounted to 0.992 ± 0.046.

On to GGGTTTCGTG, for which the switch fluorescence ratio was 0.993 ± 0.015.

As to TTTATAGGCT, the switch fluorescence ratio came out at 1.01 ± 0.047.

Regarding TTATGGCATC, the switch fluorescence ratio was 0.974 ± 0.029.

As to CGTGCCAGCT, the switch fluorescence ratio came to 0.9518 ± 0.00082.

Regarding TGGCAAAATT, the switch fluorescence ratio is 1.01 ± 0.033.

On to AGACCGCTTA, for which the switch fluorescence ratio was found to be 1.15 ± 0.036.

As to TGAATAAATT, the switch fluorescence ratio was 1.02 ± 0.015.

As to CTGGACAGTG, the switch fluorescence ratio amounted to 0.956 ± 0.013.

Regarding GTGTGAGGTG, the switch fluorescence ratio amounted to 1 ± 0.03.

In the case of TCTTGGGTAT, the switch fluorescence ratio was 0.986 ± 0.035.

TTTTGAAACT: the switch fluorescence ratio is 0.9733 ± 0.0091.

In the case of GGGAGTCTTC, the switch fluorescence ratio worked out at 1.04 ± 0.1.
